Data from paper PMC7721721.

Test system: anti-digoxigenin IgG antibody (sheep)
Test: fluorescence (FRET) titration
Conditions: 5'-digoxigenin; 25 mM HEPES pH 7.2, 0.1 M NaCl, 37 C (FRET titrations, templated reactions); native PAGE binding buffer not given in the material

For “GTCACCGCAAAATAAGATTTTTTTTTTGAGTCGAATTCGTACC [DIG-Q-strand#2 (DIG-conjugated templating strand)]”, the Kd was 3.6 nM.
